In article PMC5779702, “The glutamine synthetase of Trypanosoma cruzi is required for its resistance to ammonium accumulation and evasion of the parasitophorous vacuole during host-cell infection” (PLoS Neglected Tropical Diseases, 2018):

Columns and labels:
[1] = target: T1, glutamine synthetase (TcGS) (Trypanosoma cruzi, UniProt Q4CN04); assay: enzyme inhibition kinetics of purified recombinant TcGS; format: biochemical
T1 construct: gene Tc00.1047053503405.10; recombinant His6-tagged TcGS (TcCLB.503405.10 starting at base pair 123), expressed in E. coli

[2] = system: N[C@@H](CCC(=O)O)C(=O)O; assay: purified protein; details: Mg2+
[3] = system: Nc1ncnc2c1ncn2[C@@H]1O[C@H](COP(=O)(O)OP(=O)(O)OP(=O)(O)O)[C@@H](O)[C@H]1O; assay: purified protein; details: Mg2+
[4] = target: recombinant Trypanosoma cruzi glutamine synthetase (TcGS), His6-tagged (Trypanosoma cruzi); assay: SEC; analytical size-exclusion chromatography of recombinant TcGS (elutions of the Ni-NTA column); mass estimated from a calibration of the column; TcGS followed in the fractions by Bradford, dot-blot, ELISA and GS activity

CS(=N)(=O)CCC(N)C(=O)O (centres unmarked) [MS, Methionine sulfoximine]
Ki [1]: 3.89 ± 0.04 µM

glutamine synthetase (TcGS) (Trypanosoma cruzi strain CL Brener)
Km [2]: 440 ± 60 µM | kcat [2]: 392 ± 9.5 s⁻¹ | kcat/Km [2]: 890000 M⁻¹ s⁻¹ | Km [3]: 380 ± 100 µM | kcat [3]: 396 ± 18.2 s⁻¹ | kcat/Km [3]: 1.05e+06 M⁻¹ s⁻¹

recombinant Trypanosoma cruzi glutamine synthetase (TcGS), His6-tagged (enzyme)
stoichiometry N [4]: 8
